Source: US20220233697A1 (ACCELERON PHARMA, published 2022)

Molecular target: T1, activin A (UniProt P08476 311-426)
T1 construct: also called ActA
T1 sequence (looked up): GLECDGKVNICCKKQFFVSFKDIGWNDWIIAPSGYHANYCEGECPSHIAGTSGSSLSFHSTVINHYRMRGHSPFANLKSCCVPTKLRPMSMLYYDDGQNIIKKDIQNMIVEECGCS
Assay: Biacore, ligand coupled, receptor flowed (table reproduced from WO2006/012627)

B1: Soluble ActRIIB-Fc K55A (Fc fusion, UniProt Q13705 19-119, looked up)
chain: SGRGEAETRECIYYNANWELERTNQSGLERCEGEQDARLHCYASWANSSGTIELVKKGCWLDDFNCYDRQECVATEENPQVYFCCCEGNFCNERFTHLPEA
notes: not shown: Fc domain, not specified
binding result: binds
